Reference: article PMC10369947
Like-named read-outs stand apart in the source and are kept apart here.

Key:
Assay in all cases: smFRET
[1] = molecular target: T1, GAF-DBD (GAF-ZnF, Cy3) (Drosophila melanogaster, UniProt Q08605)
T1 sequence: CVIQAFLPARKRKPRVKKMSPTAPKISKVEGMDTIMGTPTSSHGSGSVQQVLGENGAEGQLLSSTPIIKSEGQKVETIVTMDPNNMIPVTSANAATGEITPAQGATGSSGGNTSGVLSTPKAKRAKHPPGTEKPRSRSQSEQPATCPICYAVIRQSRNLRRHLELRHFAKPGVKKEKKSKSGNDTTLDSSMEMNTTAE

[2] = molecular target: T1, GAF-DBD (GAF-ZnF, Cy3); remark: listed apart in the source
[3] = molecular target: T1, GAF-DBD (GAF-ZnF, Cy3); remark: listed apart in the source
[4] = molecular target: T1, GAF-DBD (GAF-ZnF, Cy3); remark: listed apart in the source

B1: hsp70 tandem Cy5/Cy7 DNA (187 bp) (dsDNA)
DNA 1: TCATTTGTTTGGCAGAAAGAAAACTCTCAAAATTTCGTTGGCCGTTATAGCATATTCGTTTTGTGAGAGAGGGAGAGAGTACTATTGTTAACCCACAAGGTCGCACAGTAAACGGCACACTGTACGTGTTGCTTCGAGAGAGCGCGCCACCTGGTGTCGCGAAAAGAGCGCCGGAGTATAAATAGAG
DNA 2: CTCTATTTATACTCCGGCGCTCTTTTCGCGACACCAGGTGGCGCGCTCTCTCGAAGCAACACGTACAGTGTGCCGTTTACTGTGCGACCTTGTGGGTTAACAATAGTACTCTCTCCCTCTCTCACAAAACGAATATGCTATAACGGCCAACGAAATTTTGAGAGTTTTCTTTCTGCCAAACAAATGA
modifications: amino-C6-T coupled dyes
- binding result [1]: binds

B2: hsp70 Site 2 Only Cy5/Cy7 DNA (dsDNA)
DNA 1: TCATTTGTTTGGCAGAAAGAAAACTCTCAAAATTTCGTTGGCCGTTATAGCATATTCGTTTTGTCCAGCACTGTAATAGTACTATTGTTAACCCACAAGGTCGCACAGTAAACGGCACACTGTACGTGTTGCTTCGAGAGAGCGCGCCACCTGGTGTCGCGAAAAGAGCGCCGGAGTATAAATAGAG
DNA 2: CTCTATTTATACTCCGGCGCTCTTTTCGCGACACCAGGTGGCGCGCTCTCTCGAAGCAACACGTACAGTGTGCCGTTTACTGTGCGACCTTGTGGGTTAACAATAGTACTATTACAGTGCTGGACAAAACGAATATGCTATAACGGCCAACGAAATTTTGAGAGTTTTCTTTCTGCCAAACAAATGA
modifications: amino-C6-T coupled dyes
- binding result [2]: binds

B3: hsp70 flipped Cy5/Cy7 DNA (187 bp) (dsDNA)
DNA 1: TCATTTGTTTGGCAGAAAGAAAACTCTCAAAATTTCGTTGGCCGTTATAGCATATTCGTTTTGTGACTCTCCCTCTCTGTACTATTGTTAACCCACAAGGTCGCACAGTAAACGGCACACTGTACGTGTTGCTTCGAGAGAGCGCGCCACCTGGTGTCGCGAAAAGAGCGCCGGAGTATAAATAGAG
DNA 2: CTCTATTTATACTCCGGCGCTCTTTTCGCGACACCAGGTGGCGCGCTCTCTCGAAGCAACACGTACAGTGTGCCGTTTACTGTGCGACCTTGTGGGTTAACAATAGTACAGAGAGGGAGAGTCACAAAACGAATATGCTATAACGGCCAACGAAATTTTGAGAGTTTTCTTTCTGCCAAACAAATGA
modifications: amino-C6-T coupled dyes
- binding result [3]: binds

B4: Cognate-Motif Cy5-DNA (90 bp) (dsDNA)
DNA 1: GTTTTGTGAGTACGCGCTGTTGTACTATTGTTAACCCACAAGGTCGCACAGTAAACGGCACACTGTACGTGTTGCTTCGAGAGAGCGCGC
DNA 2: GCGCGCTCTCTCGAAGCAACACGTACAGTGTGCCGTTTACTGTGCGACCTTGTGGGTTAACAATAGTACAACAGCGCGTACTCACAAAAC
modifications: internal backbone Cy5 in strand 2
- binding result [4]: binds
